Measured values from paper PMC9352680, “A comprehensive thermodynamic model for RNA binding by the Saccharomyces cerevisiae Pumilio protein PUF4”.

T1: PUF4 RNA-binding domain (Saccharomyces cerevisiae, UniProt P25339 537-888)
T1 sequence: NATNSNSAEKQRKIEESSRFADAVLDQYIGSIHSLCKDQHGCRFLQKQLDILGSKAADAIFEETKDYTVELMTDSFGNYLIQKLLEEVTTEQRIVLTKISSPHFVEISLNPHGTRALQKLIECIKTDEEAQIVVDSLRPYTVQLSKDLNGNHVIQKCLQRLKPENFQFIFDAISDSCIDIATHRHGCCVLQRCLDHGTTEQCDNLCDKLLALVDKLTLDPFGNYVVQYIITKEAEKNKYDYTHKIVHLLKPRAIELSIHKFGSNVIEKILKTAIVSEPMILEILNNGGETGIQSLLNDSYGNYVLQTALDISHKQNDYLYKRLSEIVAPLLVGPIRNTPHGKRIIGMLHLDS


Molecular target: T1, PUF4 RNA-binding domain
Assay: Mg; RNA-MaP; 20 mM Na-HEPES pH 7.4, 30 mM KOAc, 0.75 mM MgCl2, 0.1% Tween-20, 5% glycerol, 0.1 mg/mL BSA, 2 mM DTT; 25 C; 0.0125-409.6 nM protein
Conditions: tags: N-His6-TEV cleaved; C-SNAP kept, Cy3B-labelled; label: tethered on chip by stalled RNA polymerase

Row | Binder | Kd
1 | UCUCUUUGUACCUAUCUCUU (ssRNA) [Ib_S1_P3E.1_K3.1_C3.1_H3.1_A3.1_[T5C]_[A6C]_F3.1_T3.1] | 86.7 nM
2 | Ic_S2_P4E.1_K4.1_C4.1_H4.1_A4.1_[T5C]_[A6T]_F4.1_[A9T]_T4.1 (ssRNA) RNA: UUUGAUUAAUAUGAUAUCGUUCUUUCUUGUACUUUUUUCUUUCUCGAUAUCAUAUUAAUCUUU | 9.78 nM
3 | Ic_S2_P4E.1_K4.1_C4.1_H4.1_A4.1_[T5C]_[T7C]_F4.1_[A9T]_T4.1 (ssRNA) RNA: UUUGAUUAAUAUGAUAUCGUUCUUUCUUGUACACUUUUCUUUCUCGAUAUCAUAUUAAUCUUU | 2.92 nM
4 | Ic_S2_P4E.1_K4.1_C4.1_H4.1_A4.1_[T5A]_[A6T]_[T7C]_F4.1_[T8C]_[A9G]_T4.1 (ssRNA) RNA: UUUGAUUAAUAUGAUAUCGUUCUUUCUUGUAAUCCGUUCUUUCUCGAUAUCAUAUUAAUCUUU | 648 nM
5 | Ic_S2_P4E.1_K4.1_C4.1_H4.1_A4.1_[T5A]_[A6C]_[T7G]_F4.1_T4.1 (ssRNA) RNA: UUUGAUUAAUAUGAUAUCGUUCUUUCUUGUAACGUAUUCUUUCUCGAUAUCAUAUUAAUCUUU | 11 nM
6 | Ic_S2_P4E.1_K4.1_C4.1_H4.1_A4.1_[T5C]_F4.1_[T8C]_[A9G]_T4.1 (ssRNA) RNA: UUUGAUUAAUAUGAUAUCGUUCUUUCUUGUACAUCGUUCUUUCUCGAUAUCAUAUUAAUCUUU | 22.3 nM
7 | Ic_S2_P4E.1_K4.1_C4.1_H4.1_A4.1_[T5A]_[A6C]_[T7C]_F4.1_[T8A]_[A9C]_T4.1 (ssRNA) RNA: UUUGAUUAAUAUGAUAUCGUUCUUUCUUGUAACCACUUCUUUCUCGAUAUCAUAUUAAUCUUU | 1570 nM
8 | Ic_S2_P4E.1_K4.1_C4.1_H4.1_A4.1_[T5A]_[A6T]_[T7C]_F4.1_[T8G]_[A9G]_T4.1 (ssRNA) RNA: UUUGAUUAAUAUGAUAUCGUUCUUUCUUGUAAUCGGUUCUUUCUCGAUAUCAUAUUAAUCUUU | 1800 nM
9 | Ic_S2_P4E.1_K4.1_C4.1_H4.1_A4.1_[T5C]_[T7C]_F4.1_[T8A]_T4.1 (ssRNA) RNA: UUUGAUUAAUAUGAUAUCGUUCUUUCUUGUACACAAUUCUUUCUCGAUAUCAUAUUAAUCUUU | 13.8 nM
10 | Ic_S2_P4E.1_K4.1_C4.1_H4.1_A4.1_[T5A]_[A6C]_[T7C]_F4.1_[T8C]_[A9C]_T4.1 (ssRNA) RNA: UUUGAUUAAUAUGAUAUCGUUCUUUCUUGUAACCCCUUCUUUCUCGAUAUCAUAUUAAUCUUU | 582 nM
11 | Ic_S2_P4E.1_K4.1_C4.1_H4.1_A4.1_[T5C]_F4.1_[T8A]_[A9C]_T4.1 (ssRNA) RNA: UUUGAUUAAUAUGAUAUCGUUCUUUCUUGUACAUACUUCUUUCUCGAUAUCAUAUUAAUCUUU | 4.76 nM
12 | Ic_S2_P4E.1_K4.1_C4.1_H4.1_A4.1_[T5A]_[A6C]_[T7A]_F4.1_[A9C]_T4.1 (ssRNA) RNA: UUUGAUUAAUAUGAUAUCGUUCUUUCUUGUAACAUCUUCUUUCUCGAUAUCAUAUUAAUCUUU | 16 nM
13 | Ic_S2_P4E.1_K4.1_C4.1_H4.1_A4.1_[T5C]_F4.1_[T8C]_[A9C]_T4.1 (ssRNA) RNA: UUUGAUUAAUAUGAUAUCGUUCUUUCUUGUACAUCCUUCUUUCUCGAUAUCAUAUUAAUCUUU | 12.3 nM
14 | Ic_S2_P4E.1_K4.1_C4.1_H4.1_A4.1_[T5A]_[A6C]_F4.1_[T8A]_[A9G]_T4.1 (ssRNA) RNA: UUUGAUUAAUAUGAUAUCGUUCUUUCUUGUAACUAGUUCUUUCUCGAUAUCAUAUUAAUCUUU | 946 nM
15 | Ic_S2_P4E.1_K4.1_C4.1_H4.1_A4.1_[T5A]_[A6C]_[T7C]_F4.1_[A9C]_T4.1 (ssRNA) RNA: UUUGAUUAAUAUGAUAUCGUUCUUUCUUGUAACCUCUUCUUUCUCGAUAUCAUAUUAAUCUUU | 44.4 nM
16 | Ic_S2_P4E.1_K4.1_C4.1_H4.1_A4.1_[T5C]_[T7C]_F4.1_[T8C]_T4.1 (ssRNA) RNA: UUUGAUUAAUAUGAUAUCGUUCUUUCUUGUACACCAUUCUUUCUCGAUAUCAUAUUAAUCUUU | 14 nM
17 | Ic_S2_P4E.1_K4.1_C4.1_H4.1_A4.1_[T5C]_[T7A]_F4.1_[A9G]_T4.1 (ssRNA) RNA: UUUGAUUAAUAUGAUAUCGUUCUUUCUUGUACAAUGUUCUUUCUCGAUAUCAUAUUAAUCUUU | 7.25 nM
18 | Ic_S2_P4E.1_K4.1_C4.1_H4.1_A4.1_[T5C]_[T7G]_F4.1_[T8C]_T4.1 (ssRNA) RNA: UUUGAUUAAUAUGAUAUCGUUCUUUCUUGUACAGCAUUCUUUCUCGAUAUCAUAUUAAUCUUU | 206 nM
19 | Ic_S2_P4E.1_K4.1_C4.1_H4.1_A4.1_[T5A]_[A6T]_[T7G]_F4.1_[T8C]_[A9C]_T4.1 (ssRNA) RNA: UUUGAUUAAUAUGAUAUCGUUCUUUCUUGUAAUGCCUUCUUUCUCGAUAUCAUAUUAAUCUUU | 1040 nM
20 | Ic_S2_P4E.1_K4.1_C4.1_H4.1_A4.1_[T5C]_[T7C]_F4.1_[A9G]_T4.1 (ssRNA) RNA: UUUGAUUAAUAUGAUAUCGUUCUUUCUUGUACACUGUUCUUUCUCGAUAUCAUAUUAAUCUUU | 2.73 nM
21 | Ic_S2_P4E.1_K4.1_C4.1_H4.1_A4.1_[T5A]_[A6T]_[T7C]_F4.1_[T8G]_[A9T]_T4.1 (ssRNA) RNA: UUUGAUUAAUAUGAUAUCGUUCUUUCUUGUAAUCGUUUCUUUCUCGAUAUCAUAUUAAUCUUU | 335 nM
22 | Ic_S2_P4E.1_K4.1_C4.1_H4.1_A4.1_[T5A]_[A6C]_[T7C]_F4.1_[A9T]_T4.1 (ssRNA) RNA: UUUGAUUAAUAUGAUAUCGUUCUUUCUUGUAACCUUUUCUUUCUCGAUAUCAUAUUAAUCUUU | 24.6 nM

Row | Binder | Kd
23 | Ic_S2_P4E.1_K4.1_C4.1_H4.1_A4.1_[T5A]_[A6C]_F4.1_[T8C]_T4.1 (ssRNA) RNA: UUUGAUUAAUAUGAUAUCGUUCUUUCUUGUAACUCAUUCUUUCUCGAUAUCAUAUUAAUCUUU | 324 nM
24 | Ic_S2_P4E.1_K4.1_C4.1_H4.1_A4.1_[T5A]_[A6C]_[T7A]_F4.1_[T8A]_[A9T]_T4.1 (ssRNA) RNA: UUUGAUUAAUAUGAUAUCGUUCUUUCUUGUAACAAUUUCUUUCUCGAUAUCAUAUUAAUCUUU | 45.2 nM
25 | Ic_S2_P4E.1_K4.1_C4.1_H4.1_A4.1_[T5A]_[A6C]_[T7G]_F4.1_[T8C]_[A9C]_T4.1 (ssRNA) RNA: UUUGAUUAAUAUGAUAUCGUUCUUUCUUGUAACGCCUUCUUUCUCGAUAUCAUAUUAAUCUUU | 851 nM
26 | Ic_S2_P4E.1_K4.1_C4.1_H4.1_A4.1_[T5A]_[A6T]_[T7C]_F4.1_[T8G]_[A9C]_T4.1 (ssRNA) RNA: UUUGAUUAAUAUGAUAUCGUUCUUUCUUGUAAUCGCUUCUUUCUCGAUAUCAUAUUAAUCUUU | 629 nM
27 | Ic_S2_P4E.1_K4.1_C4.1_H4.1_A4.1_[T5A]_[A6C]_[T7G]_F4.1_[T8C]_[A9T]_T4.1 (ssRNA) RNA: UUUGAUUAAUAUGAUAUCGUUCUUUCUUGUAACGCUUUCUUUCUCGAUAUCAUAUUAAUCUUU | 190 nM
28 | Ic_S2_P4E.1_K4.1_C4.1_H4.1_A4.1_[T5A]_[A6C]_[T7C]_F4.1_[T8C]_T4.1 (ssRNA) RNA: UUUGAUUAAUAUGAUAUCGUUCUUUCUUGUAACCCAUUCUUUCUCGAUAUCAUAUUAAUCUUU | 666 nM
29 | Ic_S2_P4E.1_K4.1_C4.1_H4.1_A4.1_[T5C]_[T7A]_F4.1_[T8C]_[A9C]_T4.1 (ssRNA) RNA: UUUGAUUAAUAUGAUAUCGUUCUUUCUUGUACAACCUUCUUUCUCGAUAUCAUAUUAAUCUUU | 87.7 nM
30 | Ic_S2_P4E.1_K4.1_C4.1_H4.1_A4.1_[T5C]_[T7A]_F4.1_[T8C]_T4.1 (ssRNA) RNA: UUUGAUUAAUAUGAUAUCGUUCUUUCUUGUACAACAUUCUUUCUCGAUAUCAUAUUAAUCUUU | 17.4 nM
31 | Ic_S2_P4E.1_K4.1_C4.1_H4.1_A4.1_[T5A]_[A6C]_F4.1_[T8G]_[A9G]_T4.1 (ssRNA) RNA: UUUGAUUAAUAUGAUAUCGUUCUUUCUUGUAACUGGUUCUUUCUCGAUAUCAUAUUAAUCUUU | 701 nM
32 | Ic_S2_P4E.1_K4.1_C4.1_H4.1_A4.1_[T5A]_[A6C]_[T7G]_F4.1_[T8C]_T4.1 (ssRNA) RNA: UUUGAUUAAUAUGAUAUCGUUCUUUCUUGUAACGCAUUCUUUCUCGAUAUCAUAUUAAUCUUU | 747 nM
33 | Ic_S2_P4E.1_K4.1_C4.1_H4.1_A4.1_[T5A]_[A6T]_[T7G]_F4.1_T4.1 (ssRNA) RNA: UUUGAUUAAUAUGAUAUCGUUCUUUCUUGUAAUGUAUUCUUUCUCGAUAUCAUAUUAAUCUUU | 8.85 nM
34 | Ic_S2_P4E.1_K4.1_C4.1_H4.1_A4.1_[T5A]_[A6C]_[T7A]_F4.1_[T8G]_[A9C]_T4.1 (ssRNA) RNA: UUUGAUUAAUAUGAUAUCGUUCUUUCUUGUAACAGCUUCUUUCUCGAUAUCAUAUUAAUCUUU | 777 nM
35 | Ic_S2_P4E.1_K4.1_C4.1_H4.1_A4.1_[T5C]_[T7C]_F4.1_[A9C]_T4.1 (ssRNA) RNA: UUUGAUUAAUAUGAUAUCGUUCUUUCUUGUACACUCUUCUUUCUCGAUAUCAUAUUAAUCUUU | 5.21 nM
36 | Ic_S2_P4E.1_K4.1_C4.1_H4.1_A4.1_[T5A]_[A6C]_[T7C]_F4.1_[T8C]_[A9G]_T4.1 (ssRNA) RNA: UUUGAUUAAUAUGAUAUCGUUCUUUCUUGUAACCCGUUCUUUCUCGAUAUCAUAUUAAUCUUU | 742 nM
37 | Ic_S2_P4E.1_K4.1_C4.1_H4.1_A4.1_[T5A]_[A6C]_F4.1_[T8G]_[A9T]_T4.1 (ssRNA) RNA: UUUGAUUAAUAUGAUAUCGUUCUUUCUUGUAACUGUUUCUUUCUCGAUAUCAUAUUAAUCUUU | 61.3 nM
38 | Ic_S2_P4E.1_K4.1_C4.1_H4.1_A4.1_[T5A]_[A6C]_[T7G]_F4.1_[T8G]_[A9T]_T4.1 (ssRNA) RNA: UUUGAUUAAUAUGAUAUCGUUCUUUCUUGUAACGGUUUCUUUCUCGAUAUCAUAUUAAUCUUU | 1410 nM
39 | Ic_S2_P4E.1_K4.1_C4.1_H4.1_A4.1_[T5C]_[T7A]_F4.1_[T8C]_[A9G]_T4.1 (ssRNA) RNA: UUUGAUUAAUAUGAUAUCGUUCUUUCUUGUACAACGUUCUUUCUCGAUAUCAUAUUAAUCUUU | 55.1 nM
40 | Ic_S2_P4E.1_K4.1_C4.1_H4.1_A4.1_[T5A]_[A6T]_[T7G]_F4.1_[T8C]_[A9T]_T4.1 (ssRNA) RNA: UUUGAUUAAUAUGAUAUCGUUCUUUCUUGUAAUGCUUUCUUUCUCGAUAUCAUAUUAAUCUUU | 518 nM
41 | Ic_S2_P4E.1_K4.1_C4.1_H4.1_A4.1_[T5C]_[T7G]_F4.1_[A9T]_T4.1 (ssRNA) RNA: UUUGAUUAAUAUGAUAUCGUUCUUUCUUGUACAGUUUUCUUUCUCGAUAUCAUAUUAAUCUUU | 9.39 nM
42 | UCUCUUUGUAGUUAUCUCUU (ssRNA) [Ib_S1_P3E.1_K3.1_C3.1_H3.1_A3.1_[T5G]_[A6T]_F3.1_T3.1] | 1020 nM
43 | UCUCUUUGUACGUAUCUCUU (ssRNA) [Ic_S1_P3E.1_K3.1_C3.1_H3.1_A3.1_[T5C]_[A6G]_F3.1_T3.1] | 149 nM
44 | UCUCUUUGUACUUAUCUCUU (ssRNA) [Ic_S1_P3E.1_K3.1_C3.1_H3.1_A3.1_[T5C]_[A6T]_F3.1_T3.1] | 66.4 nM
